Assay results from patent US20180334494A1 (published 2018).
Substitutions are numbered along the chain they refer to. Read-outs that look alike come from different tables or passages of the source.

B1: Fab 6 (Fab, V domains shown)
VH: EVQLVESGGGLVQPGGSLRLSCAASGFNVYYYYIHWVRQAPGKGLEWVASISPYYGYTSSYADSVKGRFTISADTSKNTAYLQMNSLRAEDTAVYYCARWSYDQSMSYKSGMDYWGQGTLVTVSS
VL: DIQMTQSPSSLSASVGDRVTITCRASQSVSSAVAWYQQKPGKAPKLLIYSASSLYSGVPSRFSGSRSGTDFTLTISSLQPEDFATYYCQQYSYSLVTFGQGTKVEIKR
B2: Fab 20 (Fab, V domains shown)
VH: EVQLVESGGGLVQPGGSLRLSCAASGFNISYSSIHWVRQAPGKGLEWVASIYSYSGYTSYADSVKGRFTISADTSKNTAYLQMNSLRAEDTAVYYCARSYWYHVGSWHYTGMDYWGQGTLVTVSS
VL: B1 VL with Y91S, Y93S, V96I

Tests used:
Experiment in all cases: SPR
[1] = biological target: T1, C-terminal domain of Tai Forest Ebola virus Nucleoprotein (NP^Ct)
[2] = biological target: T2, C-terminal domain of Bundibugyo Ebola virus Nucleoprotein (NP^Ct)
[3] = biological target: T3, C-terminal domain of Zaire Ebola virus Nucleoprotein (NP^Ct) (UniProt P18272 641-739)
[4] = biological target: C-terminal domain of Reston Ebola virus Nucleoprotein (NP^Ct) (UniProt Q8JPY1 641-739)
[5] = biological target: T3, C-terminal domain of Zaire Ebola virus …; remark: listed apart in the source
[6] = biological target: T2, C-terminal domain of Bundibugyo Ebola …; remark: listed apart in the source
[7] = biological target: C-terminal domain of Sudan Ebola virus Nucleoprotein (NP^Ct) (UniProt Q9QP77 641-738)
[8] = biological target: T1, C-terminal domain of Tai Forest Ebola …; remark: listed apart in the source

Row | Binder | Kd [1] [nM] | Kd [2] [nM] | Kd [3] [nM] | Kd [4] [nM] | Kd [5] [nM] | Kd [6] [nM] | Kd [7] [nM] | Kd [8] [nM]
1 | B1 | 4.68 | 3.95 | 0.687 |  |  |  |  | 
2 | B2 |  |  |  | 11.7 | 4.14 | 16.6 | 20.3 | 3.05
